From patent US20250019439A1 (Adimab, published 2025)

What was measured:
[1] = biological target: T1, ADI-26927 Fab; assay: BLI; tip ADI-34134 IgG, solution anti-CD3 Fab
T1 construct: anti-CD3 Fab by papain digestion of the IgG
Protocol: (§1) ForteBio affinity measurements were performed generally as previously described (Estep et al., MAbs. 2013 5(2):270-8). Briefly, ForteBio affinity measurements were performed by loading antibody IgG or Fabs on-line onto AHC sensors. Sensors were equilibrated off-line in assay buffer for 30 minutes and then monitored on-line for 60 seconds for baseline establishment. For avid binding measurement, sensors with loaded antibodies were exposed to IgG or Fab solutions for 3 minutes, afterwards they were transferred to assay buffer for 3 minutes for off-rate measurement. Kinetics data were fit using a 1:1 binding model in the data analysis software provided by ForteBio to obtain equilibrium dissociation constant (KD=koff/kₒₙ) values. In each column, tip-immobilized antibodies are listed first and solution antibodies second.
(§2) In each column, tip-immobilized antibodies are listed first and solution antibodies second.

[2] = biological target: T2, ADI-26941 Fab; assay: BLI; tip ADI-34134 IgG, solution anti-CD3 Fab
T2 construct: anti-CD3 Fab by papain digestion of the IgG
Protocol: as §1, §2

[3] = biological target: T3, ADI-26906 anti-CD3 bsIgG; assay: BLI; tip anti-CD3 bsIgG, solution ADI-34134 IgG
T3 construct: anti-HER2 IgG with one Fab arm replaced by the anti-CD3 scFv (printed 'Vx-VH', read as VL-VH); S354C and Y349C mutations; also called anti-CD3 bsIgG (ADI-26906 scFv); not shown: scFv linker; anti-HER2 Fab arm (heavy and light chain); hinge and Fc with S354C/Y349C
Protocol: as §1
(§3) Additional analysis was conducted using bispecific antibody formats incorporating anti-CD3 antibody variable domains. Bispecific antibodies were prepared using standard IgG formats (bsIgG) with replacement of Fab arms with anti-CD3 scFvs in Vx-VH orientation and with S354C and Y349C mutations for disulfide stabilization. Antibodies used for Fab arm replacement were anti-HER2 IgG antibodies, with one Fab arm from each replaced by a scFv corresponding to a different anti-CD3 antibody. […] In each column, tip-immobilized antibodies are listed first and solution antibodies second. Anti-CD3 antibodies associated with incorporated scFvs are listed by antibody number.

[4] = biological target: T4, ADI-26913 anti-CD3 bsIgG; assay: BLI; tip anti-CD3 bsIgG, solution ADI-34134 IgG
T4 construct: anti-HER2 IgG with one Fab arm replaced by the anti-CD3 scFv (printed 'Vx-VH', read as VL-VH); S354C and Y349C mutations; also called anti-CD3 bsIgG (ADI-26913 scFv); not shown: scFv linker; anti-HER2 Fab arm (heavy and light chain); hinge and Fc with S354C/Y349C
Protocol: as §1, §3

[5] = biological target: T5, ADI-26916 anti-CD3 bsIgG; assay: BLI; tip anti-CD3 bsIgG, solution ADI-34134 IgG
T5 construct: anti-HER2 IgG with one Fab arm replaced by the anti-CD3 scFv (printed 'Vx-VH', read as VL-VH); S354C and Y349C mutations; also called anti-CD3 bsIgG (ADI-26916 scFv); not shown: scFv linker; anti-HER2 Fab arm (heavy and light chain); hinge and Fc with S354C/Y349C; copies: 1 + 1
Protocol: as §1, §3

[6] = biological target: T6, ADI-26920 anti-CD3 bsIgG; assay: BLI; tip anti-CD3 bsIgG, solution ADI-34134 IgG
T6 construct: anti-HER2 IgG with one Fab arm replaced by the anti-CD3 scFv (printed 'Vx-VH', read as VL-VH); S354C and Y349C mutations; also called anti-CD3 bsIgG (ADI-26920 scFv); not shown: scFv linker; anti-HER2 Fab arm (heavy and light chain); hinge and Fc with S354C/Y349C
Protocol: as §1, §3

[7] = biological target: T7, ADI-26921 anti-CD3 bsIgG; assay: BLI; tip anti-CD3 bsIgG, solution ADI-34134 IgG
T7 construct: anti-HER2 IgG with one Fab arm replaced by the anti-CD3 scFv (printed 'Vx-VH', read as VL-VH); S354C and Y349C mutations; also called anti-CD3 bsIgG (ADI-26921 scFv); not shown: scFv linker; anti-HER2 Fab arm (heavy and light chain); hinge and Fc with S354C/Y349C
Protocol: as §1, §3

[8] = biological target: T8, ADI-26928 anti-CD3 bsIgG; assay: BLI; tip anti-CD3 bsIgG, solution ADI-34134 IgG
T8 construct: anti-HER2 IgG with one Fab arm replaced by the anti-CD3 scFv (printed 'Vx-VH', read as VL-VH); S354C and Y349C mutations; also called anti-CD3 bsIgG (ADI-26928 scFv); not shown: scFv linker; anti-HER2 Fab arm (heavy and light chain); hinge and Fc with S354C/Y349C
Protocol: as §1, §3

[9] = biological target: T9, CTL-19613 anti-CD3 bsIgG (In the assay the two domains were one scFv (VL-VH orientation, linker not given). It replaced one Fab arm of an anti-HER2 IgG; S354C and Y349C mutations are stated for disulfide stabilization.); assay: BLI; tip anti-CD3 bsIgG, solution ADI-34134 IgG
T9 construct: anti-HER2 IgG with one Fab arm replaced by the anti-CD3 scFv (printed 'Vx-VH', read as VL-VH); S354C and Y349C mutations; also called anti-CD3 bsIgG (CTL-19613 scFv); not shown: scFv linker between VL and VH; anti-HER2 heavy and light chains of the other arm; hinge and Fc (with S354C / Y349C)
Protocol: as §1, §3

[10] = biological target: T10, ADI-26916 IgG; assay: SPR Carterra avidity, yeast anti-ID, *koff limit
T10 construct: anti-CD3 IgG
How it was run: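 Measured at 25° C in HBSTE running buffer on a Carterra LSA; anti-CD3 antibodies (100 nM) were captured for 5 min on an amine-coupled goat anti-human Fc HC30M chip. Anti-idiotype dissociation was followed for 300s, and double-referenced sensorgrams were fitted to a 1:1 binding model.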

T8 sequence (VH, as listed by the source limits assumed, chain 1 of 2): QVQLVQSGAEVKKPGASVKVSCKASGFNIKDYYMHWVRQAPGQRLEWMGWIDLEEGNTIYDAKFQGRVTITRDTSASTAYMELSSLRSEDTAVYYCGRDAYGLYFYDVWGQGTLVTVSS
T8 sequence (VL, as listed by the source limits assumed, chain 2 of 2): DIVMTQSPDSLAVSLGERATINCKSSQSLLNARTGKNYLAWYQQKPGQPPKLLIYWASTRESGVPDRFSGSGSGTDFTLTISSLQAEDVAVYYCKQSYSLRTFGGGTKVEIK
T6 sequence (VH, as listed by the source limits assumed, chain 1 of 2): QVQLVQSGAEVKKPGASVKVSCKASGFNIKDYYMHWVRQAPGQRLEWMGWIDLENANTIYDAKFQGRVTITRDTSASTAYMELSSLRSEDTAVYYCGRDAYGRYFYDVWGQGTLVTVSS
T2 sequence (VH, as listed by the source limits assumed, chain 1 of 2): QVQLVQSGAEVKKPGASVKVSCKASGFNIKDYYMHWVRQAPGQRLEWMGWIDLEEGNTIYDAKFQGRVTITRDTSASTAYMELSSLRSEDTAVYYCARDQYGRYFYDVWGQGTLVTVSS
T2 sequence (VL, as listed by the source limits assumed, chain 2 of 2): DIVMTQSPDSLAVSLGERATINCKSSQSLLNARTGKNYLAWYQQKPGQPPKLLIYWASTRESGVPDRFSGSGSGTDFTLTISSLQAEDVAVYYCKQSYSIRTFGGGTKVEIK
T1 sequence (VH, as listed by the source limits assumed, chain 1 of 2): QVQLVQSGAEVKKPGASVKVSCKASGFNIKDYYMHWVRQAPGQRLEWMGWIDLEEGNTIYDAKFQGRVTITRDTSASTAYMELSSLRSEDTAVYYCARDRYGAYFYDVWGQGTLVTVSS
T4 sequence (VH, as listed by the source limits assumed, chain 1 of 2): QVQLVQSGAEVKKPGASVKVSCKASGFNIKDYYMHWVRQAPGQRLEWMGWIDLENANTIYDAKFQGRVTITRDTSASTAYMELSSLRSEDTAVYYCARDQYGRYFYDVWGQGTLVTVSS
T4 sequence (VL, as listed by the source limits assumed, chain 2 of 2): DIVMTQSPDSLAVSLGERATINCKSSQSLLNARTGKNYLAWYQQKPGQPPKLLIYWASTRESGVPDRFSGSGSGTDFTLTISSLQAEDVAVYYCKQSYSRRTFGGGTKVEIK
T7 sequence (VH, as listed by the source limits assumed, chain 1 of 2): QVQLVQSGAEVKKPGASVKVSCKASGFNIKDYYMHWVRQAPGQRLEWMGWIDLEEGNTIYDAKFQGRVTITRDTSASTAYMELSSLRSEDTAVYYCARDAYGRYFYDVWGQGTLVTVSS
T5 sequence (VH, as listed by the source limits assumed, chain 1 of 2): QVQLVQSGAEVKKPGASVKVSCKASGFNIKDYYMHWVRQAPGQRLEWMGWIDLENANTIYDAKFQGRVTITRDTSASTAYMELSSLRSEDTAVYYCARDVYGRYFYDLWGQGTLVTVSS
T3 sequence (VH, as listed by the source limits assumed, chain 1 of 2): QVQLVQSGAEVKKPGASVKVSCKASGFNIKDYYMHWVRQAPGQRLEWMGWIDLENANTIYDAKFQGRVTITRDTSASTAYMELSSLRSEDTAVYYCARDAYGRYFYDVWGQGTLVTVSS

B1: ADI-34134 IgG (antibody, V domains shown)
VH: QVQLVQSGAEVKKPGSSVKVSCKASGGTFSSYAISWVRQAPGQGLEWMGGIIPIFGTANYAQKFQGRVTITADESTSTAYMELSSLRSEDTAVYYCARGAPNYYGSGGYDDGWFDPWGQGTLVTVSS
VL: EIVLTQSPGTLSLSPGERATLSCRASQSVSSDYLAWYQQKPGQAPRLLIYGASSRATGIPDRFSGSGSGTDFTLTISRLEPEDFAVYYCQQFGRVPTFGGGTKVEIK
In the case of B1, the Kd [1] is reported as 38.2 nM, the Kd [2] is reported as 138 nM and the Kd [3] is reported as 0.75 nM. It also gave a Kd [4] of 0.98 nM, a Kd [5] of 1.94 nM and a Kd [6] of 0.47 nM. The Kd [7] was 0.94 nM, the Kd [8] was 1.39 nM and the binding result [9] was “no binding”. It also gave a Kd [10] of 6.3 nM.
